Test results published in patent US20250218531A1 (ABSCI, published 2025).

B1: Trastuzumab HCDR3 variant ARSYAFLYGRMDY (Fab, V domains shown)
VH: EVQLVESGGGLVQPGGSLRLSCAASGFNIKDTYIHWVRQAPGKGLEWVARIYPTNGYTRYADSVKGRFTISADTSKNTAYLQMNSLRAEDTAVYYCARSYAFLYGRMDYWGQGTLVTVSS
VL: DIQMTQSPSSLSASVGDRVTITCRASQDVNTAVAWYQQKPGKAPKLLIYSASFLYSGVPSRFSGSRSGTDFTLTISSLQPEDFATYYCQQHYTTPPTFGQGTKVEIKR
B2: Trastuzumab HCDR3 variant ARWARGAGYYWDY (Fab, V domains shown)
VH: EVQLVESGGGLVQPGGSLRLSCAASGFNIKDTYIHWVRQAPGKGLEWVARIYPTNGYTRYADSVKGRFTISADTSKNTAYLQMNSLRAEDTAVYYCARWARGAGYYWDYWGQGTLVTVSS
VL: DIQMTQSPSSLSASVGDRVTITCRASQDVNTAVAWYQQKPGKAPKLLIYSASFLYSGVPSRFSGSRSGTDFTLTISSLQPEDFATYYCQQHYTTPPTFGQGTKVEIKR
B3: Trastuzumab HCDR3 variant ARWGTYTYGYFDY (Fab, V domains shown)
VH: EVQLVESGGGLVQPGGSLRLSCAASGFNIKDTYIHWVRQAPGKGLEWVARIYPTNGYTRYADSVKGRFTISADTSKNTAYLQMNSLRAEDTAVYYCARWGTYTYGYFDYWGQGTLVTVSS
VL: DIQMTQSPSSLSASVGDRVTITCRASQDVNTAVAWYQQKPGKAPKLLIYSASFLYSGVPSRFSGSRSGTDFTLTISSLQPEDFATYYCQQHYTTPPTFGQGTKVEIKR
B4: Trastuzumab HCDR3 variant ARWWYGGRNYFDI (Fab, V domains shown)
VH: EVQLVESGGGLVQPGGSLRLSCAASGFNIKDTYIHWVRQAPGKGLEWVARIYPTNGYTRYADSVKGRFTISADTSKNTAYLQMNSLRAEDTAVYYCARWWYGGRNYFDIWGQGTLVTVSS
VL: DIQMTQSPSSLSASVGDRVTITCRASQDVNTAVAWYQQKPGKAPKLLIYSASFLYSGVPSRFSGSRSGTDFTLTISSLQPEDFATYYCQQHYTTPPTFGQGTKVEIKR
B5: Trastuzumab HCDR3 variant ARWPPYYWWAFDY (Fab, V domains shown)
VH: EVQLVESGGGLVQPGGSLRLSCAASGFNIKDTYIHWVRQAPGKGLEWVARIYPTNGYTRYADSVKGRFTISADTSKNTAYLQMNSLRAEDTAVYYCARWPPYYWWAFDYWGQGTLVTVSS
VL: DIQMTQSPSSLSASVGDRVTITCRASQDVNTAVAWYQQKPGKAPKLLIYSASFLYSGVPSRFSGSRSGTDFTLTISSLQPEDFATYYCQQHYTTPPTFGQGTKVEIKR
B6: Trastuzumab HCDR3 variant ARWLRGLGYYWDY (Fab, V domains shown)
VH: EVQLVESGGGLVQPGGSLRLSCAASGFNIKDTYIHWVRQAPGKGLEWVARIYPTNGYTRYADSVKGRFTISADTSKNTAYLQMNSLRAEDTAVYYCARWLRGLGYYWDYWGQGTLVTVSS
VL: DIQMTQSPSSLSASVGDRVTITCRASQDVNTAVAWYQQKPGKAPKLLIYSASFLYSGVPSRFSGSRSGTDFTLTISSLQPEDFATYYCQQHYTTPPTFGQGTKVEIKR
B7: Trastuzumab HCDR3 variant ARWEQASVGSFGY (Fab, V domains shown)
VH: EVQLVESGGGLVQPGGSLRLSCAASGFNIKDTYIHWVRQAPGKGLEWVARIYPTNGYTRYADSVKGRFTISADTSKNTAYLQMNSLRAEDTAVYYCARWEQASVGSFGYWGQGTLVTVSS
VL: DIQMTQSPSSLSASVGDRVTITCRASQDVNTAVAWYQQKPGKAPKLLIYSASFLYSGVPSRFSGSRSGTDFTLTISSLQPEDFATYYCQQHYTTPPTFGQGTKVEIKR
B8: Trastuzumab HCDR3 variant ARWERYGYYVLDV (Fab, V domains shown)
VH: EVQLVESGGGLVQPGGSLRLSCAASGFNIKDTYIHWVRQAPGKGLEWVARIYPTNGYTRYADSVKGRFTISADTSKNTAYLQMNSLRAEDTAVYYCARWERYGYYVLDVWGQGTLVTVSS
VL: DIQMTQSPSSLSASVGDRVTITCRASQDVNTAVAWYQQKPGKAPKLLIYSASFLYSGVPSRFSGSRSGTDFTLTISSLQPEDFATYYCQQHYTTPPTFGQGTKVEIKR
B9: Trastuzumab HCDR3 variant ARWGYGYYYSFDY (Fab, V domains shown)
VH: EVQLVESGGGLVQPGGSLRLSCAASGFNIKDTYIHWVRQAPGKGLEWVARIYPTNGYTRYADSVKGRFTISADTSKNTAYLQMNSLRAEDTAVYYCARWGYGYYYSFDYWGQGTLVTVSS
VL: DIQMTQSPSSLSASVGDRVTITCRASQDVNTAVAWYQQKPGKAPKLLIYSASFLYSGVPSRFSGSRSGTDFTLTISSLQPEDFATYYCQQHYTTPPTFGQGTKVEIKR
B10: Trastuzumab HCDR3 variant ARYGAYSSYYFGY (Fab, V domains shown)
VH: EVQLVESGGGLVQPGGSLRLSCAASGFNIKDTYIHWVRQAPGKGLEWVARIYPTNGYTRYADSVKGRFTISADTSKNTAYLQMNSLRAEDTAVYYCARYGAYSSYYFGYWGQGTLVTVSS
VL: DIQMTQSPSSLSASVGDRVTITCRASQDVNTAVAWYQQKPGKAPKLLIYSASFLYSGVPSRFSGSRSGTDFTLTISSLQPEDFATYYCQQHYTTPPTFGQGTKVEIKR
B11: Trastuzumab HCDR3 variant ARWGSEAFYWFDY (Fab, V domains shown)
VH: EVQLVESGGGLVQPGGSLRLSCAASGFNIKDTYIHWVRQAPGKGLEWVARIYPTNGYTRYADSVKGRFTISADTSKNTAYLQMNSLRAEDTAVYYCARWGSEAFYWFDYWGQGTLVTVSS
VL: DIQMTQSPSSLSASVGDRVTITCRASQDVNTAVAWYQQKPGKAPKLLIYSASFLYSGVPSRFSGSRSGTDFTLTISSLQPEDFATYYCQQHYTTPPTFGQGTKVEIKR
B12: Trastuzumab HCDR3 variant ARYGDSYYYYFDY (Fab, V domains shown)
VH: EVQLVESGGGLVQPGGSLRLSCAASGFNIKDTYIHWVRQAPGKGLEWVARIYPTNGYTRYADSVKGRFTISADTSKNTAYLQMNSLRAEDTAVYYCARYGDSYYYYFDYWGQGTLVTVSS
VL: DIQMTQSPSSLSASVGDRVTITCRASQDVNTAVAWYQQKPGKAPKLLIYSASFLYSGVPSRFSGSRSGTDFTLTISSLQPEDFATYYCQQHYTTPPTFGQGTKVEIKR
B13: Trastuzumab HCDR3 variant ARWQGRSGYYMDY (Fab, V domains shown)
VH: EVQLVESGGGLVQPGGSLRLSCAASGFNIKDTYIHWVRQAPGKGLEWVARIYPTNGYTRYADSVKGRFTISADTSKNTAYLQMNSLRAEDTAVYYCARWQGRSGYYMDYWGQGTLVTVSS
VL: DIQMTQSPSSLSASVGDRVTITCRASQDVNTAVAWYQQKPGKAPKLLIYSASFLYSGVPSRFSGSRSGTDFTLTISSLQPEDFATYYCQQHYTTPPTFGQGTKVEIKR
B14: Trastuzumab HCDR3 variant ARTTSSIPSSFDY (Fab, V domains shown)
VH: EVQLVESGGGLVQPGGSLRLSCAASGFNIKDTYIHWVRQAPGKGLEWVARIYPTNGYTRYADSVKGRFTISADTSKNTAYLQMNSLRAEDTAVYYCARTTSSIPSSFDYWGQGTLVTVSS
VL: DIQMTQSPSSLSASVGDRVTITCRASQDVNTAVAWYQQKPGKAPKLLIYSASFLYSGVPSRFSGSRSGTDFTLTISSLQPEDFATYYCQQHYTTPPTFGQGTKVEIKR
B15: Trastuzumab HCDR3 variant ARWRYGGAYQFAL (Fab, V domains shown)
VH: EVQLVESGGGLVQPGGSLRLSCAASGFNIKDTYIHWVRQAPGKGLEWVARIYPTNGYTRYADSVKGRFTISADTSKNTAYLQMNSLRAEDTAVYYCARWRYGGAYQFALWGQGTLVTVSS
VL: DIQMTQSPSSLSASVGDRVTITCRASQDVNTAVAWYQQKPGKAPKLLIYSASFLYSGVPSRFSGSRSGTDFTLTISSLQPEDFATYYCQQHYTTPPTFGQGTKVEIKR
B16: Trastuzumab HCDR3 variant ARYGGGYYYYFDV (Fab, V domains shown)
VH: EVQLVESGGGLVQPGGSLRLSCAASGFNIKDTYIHWVRQAPGKGLEWVARIYPTNGYTRYADSVKGRFTISADTSKNTAYLQMNSLRAEDTAVYYCARYGGGYYYYFDVWGQGTLVTVSS
VL: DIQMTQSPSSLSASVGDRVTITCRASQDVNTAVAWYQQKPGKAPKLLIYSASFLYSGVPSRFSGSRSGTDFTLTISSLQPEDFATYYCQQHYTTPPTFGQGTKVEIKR
B17: Trastuzumab HCDR3 variant ARYGDAFIMSFGV (Fab, V domains shown)
VH: EVQLVESGGGLVQPGGSLRLSCAASGFNIKDTYIHWVRQAPGKGLEWVARIYPTNGYTRYADSVKGRFTISADTSKNTAYLQMNSLRAEDTAVYYCARYGDAFIMSFGVWGQGTLVTVSS
VL: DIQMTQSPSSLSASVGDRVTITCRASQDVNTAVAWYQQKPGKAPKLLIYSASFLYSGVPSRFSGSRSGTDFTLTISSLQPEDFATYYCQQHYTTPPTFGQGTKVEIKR
B18: Trastuzumab HCDR3 variant ARWEGYGSYEFAY (Fab, V domains shown)
VH: EVQLVESGGGLVQPGGSLRLSCAASGFNIKDTYIHWVRQAPGKGLEWVARIYPTNGYTRYADSVKGRFTISADTSKNTAYLQMNSLRAEDTAVYYCARWEGYGSYEFAYWGQGTLVTVSS
VL: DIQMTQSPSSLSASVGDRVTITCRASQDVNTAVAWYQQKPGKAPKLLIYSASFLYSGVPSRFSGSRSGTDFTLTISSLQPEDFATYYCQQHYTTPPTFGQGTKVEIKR
B19: Trastuzumab HCDR3 variant ARWYGLGSYGLTY (Fab, V domains shown)
VH: EVQLVESGGGLVQPGGSLRLSCAASGFNIKDTYIHWVRQAPGKGLEWVARIYPTNGYTRYADSVKGRFTISADTSKNTAYLQMNSLRAEDTAVYYCARWYGLGSYGLTYWGQGTLVTVSS
VL: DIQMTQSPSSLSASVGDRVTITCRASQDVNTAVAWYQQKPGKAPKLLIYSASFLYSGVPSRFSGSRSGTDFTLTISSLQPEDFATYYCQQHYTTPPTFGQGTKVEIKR
B20: Trastuzumab HCDR3 variant ARYDYYGYYYFDY (Fab, V domains shown)
VH: EVQLVESGGGLVQPGGSLRLSCAASGFNIKDTYIHWVRQAPGKGLEWVARIYPTNGYTRYADSVKGRFTISADTSKNTAYLQMNSLRAEDTAVYYCARYDYYGYYYFDYWGQGTLVTVSS
VL: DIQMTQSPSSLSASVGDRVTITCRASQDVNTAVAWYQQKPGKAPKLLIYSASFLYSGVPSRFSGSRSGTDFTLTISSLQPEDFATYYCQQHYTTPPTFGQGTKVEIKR
B21: Trastuzumab HCDR3 variant ARWGGFGYYYFDY (Fab, V domains shown)
VH: EVQLVESGGGLVQPGGSLRLSCAASGFNIKDTYIHWVRQAPGKGLEWVARIYPTNGYTRYADSVKGRFTISADTSKNTAYLQMNSLRAEDTAVYYCARWGGFGYYYFDYWGQGTLVTVSS
VL: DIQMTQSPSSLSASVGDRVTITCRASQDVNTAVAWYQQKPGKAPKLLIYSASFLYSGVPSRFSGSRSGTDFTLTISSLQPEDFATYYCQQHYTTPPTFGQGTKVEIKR
B22: Trastuzumab HCDR3 variant ARSYAYLYGSWDY (Fab, V domains shown)
VH: EVQLVESGGGLVQPGGSLRLSCAASGFNIKDTYIHWVRQAPGKGLEWVARIYPTNGYTRYADSVKGRFTISADTSKNTAYLQMNSLRAEDTAVYYCARSYAYLYGSWDYWGQGTLVTVSS
VL: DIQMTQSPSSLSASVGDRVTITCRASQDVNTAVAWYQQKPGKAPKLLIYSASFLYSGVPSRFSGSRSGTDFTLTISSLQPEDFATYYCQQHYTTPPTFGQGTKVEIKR
B23: Trastuzumab HCDR3 variant ARTVVGWYGRFDY (Fab, V domains shown)
VH: EVQLVESGGGLVQPGGSLRLSCAASGFNIKDTYIHWVRQAPGKGLEWVARIYPTNGYTRYADSVKGRFTISADTSKNTAYLQMNSLRAEDTAVYYCARTVVGWYGRFDYWGQGTLVTVSS
VL: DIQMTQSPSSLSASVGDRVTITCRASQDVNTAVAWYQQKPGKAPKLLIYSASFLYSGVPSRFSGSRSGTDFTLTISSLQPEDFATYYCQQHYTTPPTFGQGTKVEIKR
B24: Trastuzumab HCDR3 variant ARWWTPANYPFLY (Fab, V domains shown)
VH: EVQLVESGGGLVQPGGSLRLSCAASGFNIKDTYIHWVRQAPGKGLEWVARIYPTNGYTRYADSVKGRFTISADTSKNTAYLQMNSLRAEDTAVYYCARWWTPANYPFLYWGQGTLVTVSS
VL: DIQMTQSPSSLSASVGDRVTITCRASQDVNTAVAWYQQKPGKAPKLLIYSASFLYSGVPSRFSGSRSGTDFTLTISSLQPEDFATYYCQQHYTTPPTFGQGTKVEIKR
B25: Trastuzumab HCDR3 variant ARYFYDHYYYFDV (Fab, V domains shown)
VH: EVQLVESGGGLVQPGGSLRLSCAASGFNIKDTYIHWVRQAPGKGLEWVARIYPTNGYTRYADSVKGRFTISADTSKNTAYLQMNSLRAEDTAVYYCARYFYDHYYYFDVWGQGTLVTVSS
VL: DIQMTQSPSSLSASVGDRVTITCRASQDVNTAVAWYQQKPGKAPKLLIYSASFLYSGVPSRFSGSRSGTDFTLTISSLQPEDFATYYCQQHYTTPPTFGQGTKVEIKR
B26: Trastuzumab HCDR3 variant ARSYFRFTGDFFY (Fab, V domains shown)
VH: EVQLVESGGGLVQPGGSLRLSCAASGFNIKDTYIHWVRQAPGKGLEWVARIYPTNGYTRYADSVKGRFTISADTSKNTAYLQMNSLRAEDTAVYYCARSYFRFTGDFFYWGQGTLVTVSS
VL: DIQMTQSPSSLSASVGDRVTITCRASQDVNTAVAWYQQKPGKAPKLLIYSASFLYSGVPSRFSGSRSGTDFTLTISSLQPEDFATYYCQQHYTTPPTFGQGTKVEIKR
B27: Trastuzumab HCDR3 variant ARYGDADFYAFDP (Fab, V domains shown)
VH: EVQLVESGGGLVQPGGSLRLSCAASGFNIKDTYIHWVRQAPGKGLEWVARIYPTNGYTRYADSVKGRFTISADTSKNTAYLQMNSLRAEDTAVYYCARYGDADFYAFDPWGQGTLVTVSS
VL: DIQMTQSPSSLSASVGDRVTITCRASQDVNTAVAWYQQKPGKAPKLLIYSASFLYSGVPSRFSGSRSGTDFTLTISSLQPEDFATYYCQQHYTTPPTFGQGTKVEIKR
B28: Trastuzumab HCDR3 variant ARWVSGARYYMDV (Fab, V domains shown)
VH: EVQLVESGGGLVQPGGSLRLSCAASGFNIKDTYIHWVRQAPGKGLEWVARIYPTNGYTRYADSVKGRFTISADTSKNTAYLQMNSLRAEDTAVYYCARWVSGARYYMDVWGQGTLVTVSS
VL: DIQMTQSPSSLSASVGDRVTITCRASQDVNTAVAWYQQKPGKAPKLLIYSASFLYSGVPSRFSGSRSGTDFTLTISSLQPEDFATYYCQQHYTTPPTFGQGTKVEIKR
B29: Trastuzumab HCDR3 variant ARYGARSGYAYEY (Fab, V domains shown)
VH: EVQLVESGGGLVQPGGSLRLSCAASGFNIKDTYIHWVRQAPGKGLEWVARIYPTNGYTRYADSVKGRFTISADTSKNTAYLQMNSLRAEDTAVYYCARYGARSGYAYEYWGQGTLVTVSS
VL: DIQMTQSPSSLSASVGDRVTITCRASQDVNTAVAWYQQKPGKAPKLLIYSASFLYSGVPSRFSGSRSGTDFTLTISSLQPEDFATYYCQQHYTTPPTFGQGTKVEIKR
B30: Trastuzumab HCDR3 variant ARWGSYGYYYFDY (Fab, V domains shown)
VH: EVQLVESGGGLVQPGGSLRLSCAASGFNIKDTYIHWVRQAPGKGLEWVARIYPTNGYTRYADSVKGRFTISADTSKNTAYLQMNSLRAEDTAVYYCARWGSYGYYYFDYWGQGTLVTVSS
VL: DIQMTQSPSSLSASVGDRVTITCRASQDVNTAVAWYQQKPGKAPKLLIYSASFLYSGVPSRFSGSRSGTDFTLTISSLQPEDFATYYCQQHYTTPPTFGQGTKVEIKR
B31: Trastuzumab HCDR3 variant ARYGDGTYYFFAH (Fab, V domains shown)
VH: EVQLVESGGGLVQPGGSLRLSCAASGFNIKDTYIHWVRQAPGKGLEWVARIYPTNGYTRYADSVKGRFTISADTSKNTAYLQMNSLRAEDTAVYYCARYGDGTYYFFAHWGQGTLVTVSS
VL: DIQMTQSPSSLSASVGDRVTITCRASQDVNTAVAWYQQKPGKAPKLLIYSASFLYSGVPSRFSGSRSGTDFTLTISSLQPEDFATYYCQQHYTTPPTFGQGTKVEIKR

Target: human epidermal growth factor receptor 2 (HER2) extracellular domain (human, UniProt P04626 23-629)
Test: SPR

Row | Binder | Kd [µM] | log(KD (M))
1 | B1 | 0.189 | -6.72 log(M)
2 | B2 | 0.0896 | -7.05 log(M)
3 | B3 | 0.0881 | -7.05 log(M)
4 | B4 | 0.116 | -6.94 log(M)
5 | B5 | 0.0656 | -7.18 log(M)
6 | B6 | 0.0401 | -7.4 log(M)
7 | B7 | 0.226 | -6.65 log(M)
8 | B8 | 0.0279 | -7.55 log(M)
9 | B9 | 0.038 | -7.42 log(M)
10 | B10 | 0.028 | -7.55 log(M)
11 | B11 | 0.0328 | -7.48 log(M)
12 | B12 | 0.0406 | -7.39 log(M)
13 | B13 | 0.0483 | -7.32 log(M)
14 | B14 | 0.149 | -6.83 log(M)
15 | B15 | 0.231 | -6.64 log(M)
16 | B16 | 0.0314 | -7.5 log(M)

Row | Binder | Kd [µM] | log(KD (M))
17 | B17 | 0.0674 | -7.17 log(M)
18 | B18 | 0.0425 | -7.37 log(M)
19 | B19 | 0.223 | -6.65 log(M)
20 | B20 | 0.099 | -7 log(M)
21 | B21 | 0.031 | -7.51 log(M)
22 | B22 | 0.102 | -6.99 log(M)
23 | B23 | 0.0636 | -7.2 log(M)
24 | B24 | 0.133 | -6.88 log(M)
25 | B25 | 0.0297 | -7.53 log(M)
26 | B26 | 0.135 | -6.87 log(M)
27 | B27 | 0.0358 | -7.45 log(M)
28 | B28 | 0.0338 | -7.47 log(M)
29 | B29 | 0.0451 | -7.35 log(M)
30 | B30 | 0.0309 | -7.51 log(M)
31 | B31 | 0.0973 | -7.01 log(M)
